# Experiments:
# [1] = target: OX40 on HT1080 OX40 stable cell line (Homo sapiens (Human)) (UniProt P43489)
# [2] = target: OX40 on HT1080 OX40 stable cell line (Homo sapiens (Human)) (UniProt P43489); remark: listed apart in the source
# Chain of OX40 on HT1080 OX40 stable cell line (Homo sapiens (Human)) (P43489 29-277): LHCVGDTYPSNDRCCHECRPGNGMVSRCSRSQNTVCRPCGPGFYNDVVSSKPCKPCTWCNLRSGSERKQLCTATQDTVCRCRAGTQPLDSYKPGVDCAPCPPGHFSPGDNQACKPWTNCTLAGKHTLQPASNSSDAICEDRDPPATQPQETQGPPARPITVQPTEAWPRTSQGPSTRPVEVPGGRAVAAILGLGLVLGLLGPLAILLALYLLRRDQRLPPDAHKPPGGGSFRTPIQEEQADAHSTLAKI
substance,measurement,setting,value
OX40L-Fc (Fc fusion),"EC50 (read off the curve), IL-8 secretion, agonist assay control",[1],300 pM
same,"EC50 (read off the curve), IL-8 secretion, antagonist assay control (ligand titration)",[2],300 pM

# Source: patent publication US20210024640A1
